Data reported in the nanobody polyreactivity screen of Harvey et al. (2022).

Assay: yeast display, Sf9 membrane polyspecificity reagent, FACS + sequencing; frameworks hold sequencing errors
How it was run: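 Galactose-induced (36–48 hours) yeast carrying a synthetic nanobody display library were exposed to 10% biotinylated, detergent-solubilized Sf9 membrane reagent at 4 °C for 1 hour. FACS followed streptavidin microbead enrichment, using low and high (top ~1%) gates for expression (anti-HA) and reagent binding (streptavidin). Colony PCR, MiSeq 2 × 250 sequencing and CDR-length filtering followed. Labels for polyreactivity reflect the gate of origin.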

Row | Sequence | polyreactivity (PSR sort gate)
1 | QVQLVESGGGLVQAGGSLRLSCAASGRTFRFYAMGWYRQAPGKERELVASISSSGGSTYYADSVKGRFTISRDNAKNTVYLQMNSLKPEDTAVYYCNADVTNWEDDYYYWGQGTQVTVSS | high polyreactivity
2 | QVQLVESGGGLVQAGGSLRLSCAASGFIFEDYAMGWYRQAPGKERELVAAIRSNDDSTYYADSVKGRFTISRDNSKNTVYLHMNSLKPEDTAVYYCNKGLRRWSTRSHYYYWGQGTQVTVSS | high polyreactivity
3 | QVQLVESGGGLVQAGGSLRVSCAASGLILAYYDMGWYRQAPGKERELVASITGSGGDTYYADSVKGRFTISRDNAKNTVYLQMNSLKPEDTAVYYCAAEYRNVYWIFGVDYWGQGTQVTVSS | low polyreactivity
4 | QVQLVESGGGLVQAGGSLRLSCAASGSTSGPYAMGWYRQAPGKETELVATISWIGDRTYYADSVKGRFTISRDNAKNTIYLQMNSLKPEDTAVYYCNADYRGYANLEGDYWGQGTQVTVSS | low polyreactivity
5 | QVQLVESGGGLVQAGGSLRLSCAASGSIFYGYAMGWYRQAPGKERELVAAISFSGGSTHYADSVKGRFTISRDNAKNTVYLQMNSLKPEDTAVYYCATDSGTPGDDEYWGQGTQVTVSS | low polyreactivity
6 | QVQLVESGGGLVQAGGSLRLSCAASGSTFDDYAMGWYRQAPGKERELVAAISSAGTTYYADSVKGRFTISRDNAKNTVYLQMNSLKPEDTAVYYCNTVLYPVWYVNFSLRYRYDYYWGQGTQVTVSS | high polyreactivity
7 | QVQLVESGGGLVQAGGSLRLSCAAYGSILLRYAMGWYRQAPGKERELVAAIRTIGASTYYADSVKGRFTISRDNAKNTVYLQMNSLKPEDTAVYYCNGYLAEVLQLGKCRLYDYWGQSTQVTVSS | low polyreactivity
8 | QVQLVESGGGLVQAGGSLRLSCAASGSIFEIYDMGWYRQAPGKERELVASIRTSGGSTYYADSVKGRFTISRDNAKNTVYLQMNSLKPEDTAVYYCATGWSWYHPDYDYWGQGTQVTVSS | low polyreactivity
9 | QVQLVESGGGLVQAGGSLRLSCAASGRTFGKNAMGWYRQAPGKEREFVAAITSRGGSTYYADSVKGRFTISRDNAKNTVYLQMNSLKPEDTAVYYCNREYNRPSQRTEHYYWGQGTQVTVSS | low polyreactivity
10 | QDQLVESGGGLVQAGGSLRLSCAASGFIFYFYAMVWYRQAPGKERELVAAISSGGSTNYADSVKGRFTISRDNAKNTVYLQMNSLKPEDTAVYYCNKGGYYKYFLNDYNYWGQGTQVTVSS | low polyreactivity
11 | QVQLVESGGGLVQAGGSLRLSCAASGRIFGNYAMGWYRQAPGKERELVAAISGGGSTYYADSVKGRFTISRDKAKNTVYLQMNSLKPEDTAVYYCAARFLWSVFGRKGGYWGQGTQVTVSS | low polyreactivity
12 | QVQLVESGGGLVQAGGSLRLSCAASGRTLPIYAMGWYRQAPGKERELVAAISWSGASTYADSVKGRFTISRDNAKYTVYLQMNSLKPEDTAVYYCAAYYESWYSSYGYGYWGQGTQVTVSS | low polyreactivity
13 | QVQLVESGRALVQAGGSLRLSCASSVRIFVRNAMGWYRQAPGKESELVAAISARGGRTNYADSVKGRFTISRDNAKNTVYLQMNSLKPDDTAVYYCAAVGFRAAYLYDYWGQGTQVTVSS | high polyreactivity
14 | QLQLVESGGGLVQAGGSLRLSCAASGRIFTYNALGWYRQAPGKERELVARIRRSGGTYYADSVKGRFTISRDNAKNTVYLQMNSLKPEDTAVYYCAVDLYIYYREYDYWGQGTQVTVSS | high polyreactivity
15 | QVQLVESGGGLVQAGGRLRLSCAASGIIFRWYTMGWYRQAPGKERELVAAISTSTGSTYYADSVKGRFTISRDNAKNTVYLQMNSLKPEDSAVYYCAAVYAYWNYESYYWGQGTQVTVSS | high polyreactivity
16 | QVQLVESGGGLVQAGGSLRLTCAASGRTFRKNAMGWYRQAPGKERELVAAITGSSGTTYYADSVKGRFTISRDNAKNTVYLQMNSLKPEDTAVYYCATTVGDPGRRYYYWGQGTQVTVSS | high polyreactivity
17 | QVQLVESGGGLVQAGGSLRLSCAASGFTFYYYTMGWYRQAPGKERELVAVITLSDGSTNYADSVKGRFTISRDNAKNTVYLQMNSLKPEDTAVYYCDAKYVDYGYHGYDYWGQGTQVTVSS | low polyreactivity
18 | QVQLVESGGGLVQAGGRLRLSCAASGYTFTHYAMGLYRQAPVKESELVASIRNSGSRTYYADSVKGRFTISPDNAKNTVYLQLNSLKPEDTAVYYCAAKTTTPYRYIYYYWGQGTQVTVSS | high polyreactivity
19 | QVQLVESGGGLVQAGGSLRLSCAASGFTFSINTMGWYRQAPGKERQFVAGISRSGGSTYYADSVKWRFTISRDNAKNTVYLQMNSLKPEDTAVYYCAAGGPYWSRYEYWGQGNQVTVSS | high polyreactivity
20 | QVQLVESGGGLVQAGGSLRLSCAASGFTFHWYAMGWYRQAPGKERELVAAITDTGGSTYYADSVKGRFTISRDNAKNTVYLQMNSLKPEDTAVYYCATRHSKYGYEYDYWGQGTQVTVSS | low polyreactivity
21 | QVQLVESGGGLVQAGGSLRLSCAASGFIFIPYAKGWYRQAPGKERELVAAISVSDGTTYYADSVKGRFTISRDNAKNTVYFQMNSLKPEDTAVDYCAARRRAQQGTRDHDYWGQGTQVTVSS | high polyreactivity
